The target of the assay is fluorescent tagged eIF4E-3 (Drosophila melanogaster). Description: FRET or BRET.

B1: fluorescent tagged Me31B (FRET partner of eIF4E-3) (natural protein)
chain: MMTEKLNSGHTNLTSKGIINDLQIAGNTSDDMGWKSKLKLPPKDNRFKTTDVTDTRGNEFEEFCLKRELLMGIFEKGWERPSPIQEAAIPIALSGKDVLARAKNGTGKTGAYCIPVLEQIDPTKDYIQALVMVPTRELALQTSQICIELAKHLDIRVMVTTGGTILKDDILRIYQKVQLIIATPGRILDLMDKKVADMSHCRILVLDEADKLLSLDFQGMLDHVILKLPKDPQILLFSATFPLTVKNFMEKHLREPYEINLMEELTLKGVTQYYAFVQERQKVHCLNTLFSKLQINQSIIFCNSTQRVELLAKKITELGYCCYYIHAKMAQAHRNRVFHDFRQGLCRNLVCSDLFTRGIDVQAVNVVINFDFPRMAETYLHRIGRSGRFGHLGIAINLITYEDRFDLHRIEKELGTEIKPIPKVIDPALYVANVGASVGDTCNNSDLNNSANEEGNVSK
Regarding B1, the FRET efficiency turned out to be 25%.
